Data: patent publication US12637513B2, “Method of treating cancer by administering an inhibitor of erythropoietin receptor activity comprising either erythropoietin receptor or erythropoietin protein” (ImmunEdge, Inc., priority 2022, dated 2026)

Key:
PHD1-3 = settings: target PHD1-3; cited from earlier work
Glucosidase = settings: target Glucosidase; cited from earlier work
[1] = tested on: CD11c^IntMHCII^HighXCR1^+ cDC1s / OT-II cells; assay: In vitro Ag-specific Treg induction: pLN cDC1s loaded with Ova-thy cells and naïve OT-II cells; type: cell-based, mouse; settings: untreated cells 25.5%
hetero-EPOR = target: T1, hetero-EPOR (Homo sapiens, UniProt P19235+P32927); settings: cited from earlier work
T1 sequence (P19235 25-508): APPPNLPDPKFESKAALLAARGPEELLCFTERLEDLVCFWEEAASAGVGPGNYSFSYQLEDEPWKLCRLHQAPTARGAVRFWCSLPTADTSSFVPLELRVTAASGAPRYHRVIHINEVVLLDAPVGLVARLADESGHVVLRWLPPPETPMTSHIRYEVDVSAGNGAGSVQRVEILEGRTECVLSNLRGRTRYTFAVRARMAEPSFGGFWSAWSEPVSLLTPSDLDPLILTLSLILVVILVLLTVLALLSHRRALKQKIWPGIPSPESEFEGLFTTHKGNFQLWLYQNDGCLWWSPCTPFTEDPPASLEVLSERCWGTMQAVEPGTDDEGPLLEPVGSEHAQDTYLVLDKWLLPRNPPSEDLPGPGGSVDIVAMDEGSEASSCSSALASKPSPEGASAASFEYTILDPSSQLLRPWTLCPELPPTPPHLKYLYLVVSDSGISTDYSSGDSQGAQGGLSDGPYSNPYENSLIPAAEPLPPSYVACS
T1 sequence (P32927 17-897): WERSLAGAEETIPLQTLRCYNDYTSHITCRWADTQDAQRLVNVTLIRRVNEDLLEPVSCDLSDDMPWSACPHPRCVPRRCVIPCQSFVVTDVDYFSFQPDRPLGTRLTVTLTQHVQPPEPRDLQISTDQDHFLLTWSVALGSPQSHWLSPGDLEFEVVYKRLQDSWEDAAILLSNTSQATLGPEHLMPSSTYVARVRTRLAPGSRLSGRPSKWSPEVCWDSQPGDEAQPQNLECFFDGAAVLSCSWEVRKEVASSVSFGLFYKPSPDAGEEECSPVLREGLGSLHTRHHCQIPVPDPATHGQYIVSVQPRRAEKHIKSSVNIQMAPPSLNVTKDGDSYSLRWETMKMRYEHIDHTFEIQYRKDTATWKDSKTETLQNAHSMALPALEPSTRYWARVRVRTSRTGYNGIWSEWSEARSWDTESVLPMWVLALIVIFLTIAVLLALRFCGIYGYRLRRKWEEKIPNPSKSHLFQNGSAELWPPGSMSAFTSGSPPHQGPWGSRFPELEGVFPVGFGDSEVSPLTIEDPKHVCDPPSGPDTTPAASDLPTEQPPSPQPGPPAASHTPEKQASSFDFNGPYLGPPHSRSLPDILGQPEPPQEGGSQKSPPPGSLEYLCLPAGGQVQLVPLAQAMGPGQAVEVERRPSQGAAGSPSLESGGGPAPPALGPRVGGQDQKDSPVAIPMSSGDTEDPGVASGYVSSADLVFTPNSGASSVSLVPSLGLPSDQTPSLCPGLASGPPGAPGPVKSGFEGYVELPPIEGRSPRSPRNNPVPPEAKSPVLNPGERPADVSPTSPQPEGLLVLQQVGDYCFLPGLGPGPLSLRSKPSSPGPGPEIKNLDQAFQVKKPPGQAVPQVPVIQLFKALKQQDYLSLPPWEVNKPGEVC

293T/EPOR cells = target: T2, 293T/EPOR cells (Homo sapiens, UniProt P19235); assay: Staining of 293T/EPOR cells with purified antibodies (flow cytometry); type: binding
T2 construct: expressed in transfected cells; host or cells: 293T cells expressing hEPOR
T2 sequence (P19235 25-508): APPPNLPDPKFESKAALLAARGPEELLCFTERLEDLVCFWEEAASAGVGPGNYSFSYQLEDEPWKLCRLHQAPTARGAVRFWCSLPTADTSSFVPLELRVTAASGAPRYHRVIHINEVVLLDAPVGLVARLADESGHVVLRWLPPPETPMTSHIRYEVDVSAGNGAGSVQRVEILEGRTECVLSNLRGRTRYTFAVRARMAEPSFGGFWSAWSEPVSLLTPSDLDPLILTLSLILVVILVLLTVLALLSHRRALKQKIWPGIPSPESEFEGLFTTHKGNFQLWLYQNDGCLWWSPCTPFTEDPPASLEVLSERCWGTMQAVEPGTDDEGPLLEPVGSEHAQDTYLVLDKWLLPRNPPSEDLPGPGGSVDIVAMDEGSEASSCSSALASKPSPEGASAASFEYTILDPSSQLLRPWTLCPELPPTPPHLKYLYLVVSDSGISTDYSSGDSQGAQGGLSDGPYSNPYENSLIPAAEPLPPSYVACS
Description: (§1) The purified antibodies were used to stain the human leukemia UT-7 cells, 293T/EPOR, 293T/CD131, and 293T/EPOR/CD131 cells to confirm antigen binding. The UT-7 cells were maintained in Roswell Park Memorial Institute (RPMI) with 10% Fetal Bovine Serum (FBS) and 5 ng/ml of recombinant human GM-CSF (Peprotech®, Cat #300-03). The 293T cells expressing hEPOR, hCD131, or both were maintained in Dulbecco's Modified Eagle Medium (DMEM) with 10% FBS. 1×10^6 cells/ml were incubated with purified hybridoma clones M2 and M41 at a 3-fold dilution series starting from 20 μg/ml for 30 minutes at 4° C. After washing, the cells were incubated with PE labeled secondary antibody and subjected to flowcytometric analysis. […] The binding profiles of the 293T/EPOR/CD131 cells are similar except the peak MFIs around 1500, half of that of the 293T/EPOR cells (FIG. 29B).

EPOR (UT-7 cells) = target: T3, EPOR (UT-7 cells) (Homo sapiens, UniProt P19235); assay: Flow-based phosphorylated Stat5 assay, blocking by anti-EPOR antibodies; type: cell-based; settings: 20 μg/ml antibody; 0.1 μg/ml recombinant human EPO
T3 construct: endogenous in cells; host or cells: UT-7 human leukemia cells
T3 sequence (P19235 25-508): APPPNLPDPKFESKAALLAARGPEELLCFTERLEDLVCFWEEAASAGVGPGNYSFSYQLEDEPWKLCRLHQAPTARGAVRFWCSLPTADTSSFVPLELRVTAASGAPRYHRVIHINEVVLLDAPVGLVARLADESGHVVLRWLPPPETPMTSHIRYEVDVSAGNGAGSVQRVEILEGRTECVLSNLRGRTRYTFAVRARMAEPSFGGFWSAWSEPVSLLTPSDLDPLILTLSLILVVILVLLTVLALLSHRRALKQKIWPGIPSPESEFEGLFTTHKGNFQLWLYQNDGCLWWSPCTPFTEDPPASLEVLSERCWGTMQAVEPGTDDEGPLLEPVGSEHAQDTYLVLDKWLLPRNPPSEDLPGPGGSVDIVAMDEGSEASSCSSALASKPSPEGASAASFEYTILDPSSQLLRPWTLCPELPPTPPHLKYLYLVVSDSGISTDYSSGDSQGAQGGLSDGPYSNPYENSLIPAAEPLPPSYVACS
Description: EPOR activation leads to phosphorylation of Stat5. A flow-based assay on phosphorylated Stat5 was set up to test the blocking activities of anti-EPOR antibodies. The UT-7 cells were cultured without GM-CSF for overnight before the EPO stimulation. 3×10^6 cells/ml were incubated with 20 μg/ml of anti-EPOR for 15 minutes before stimulation with 0.1 μg/ml of recombinant human EPO (Peprotech®, Cat #100-64) for 10 minutes at 37° C. The cells were fixed immediately with fixation buffer (Cytofix™ buffer; BD Biosciences, Cat #554655) and permeabilized with methanol. After washing, cells were stained with PE labeled anti-Stat5 (BD Biosciences, Cat #612567) and subjected to flow cytometry analysis.

293T/EPOR/CD131 cells = target: T4, 293T/EPOR/CD131 cells (Homo sapiens, UniProt P19235); assay: Staining of 293T/EPOR/CD131 cells with purified antibodies; type: binding
T4 construct: expressed in transfected cells; host or cells: 293T cells, lentiviral transduction
T4 sequence (P19235 25-508): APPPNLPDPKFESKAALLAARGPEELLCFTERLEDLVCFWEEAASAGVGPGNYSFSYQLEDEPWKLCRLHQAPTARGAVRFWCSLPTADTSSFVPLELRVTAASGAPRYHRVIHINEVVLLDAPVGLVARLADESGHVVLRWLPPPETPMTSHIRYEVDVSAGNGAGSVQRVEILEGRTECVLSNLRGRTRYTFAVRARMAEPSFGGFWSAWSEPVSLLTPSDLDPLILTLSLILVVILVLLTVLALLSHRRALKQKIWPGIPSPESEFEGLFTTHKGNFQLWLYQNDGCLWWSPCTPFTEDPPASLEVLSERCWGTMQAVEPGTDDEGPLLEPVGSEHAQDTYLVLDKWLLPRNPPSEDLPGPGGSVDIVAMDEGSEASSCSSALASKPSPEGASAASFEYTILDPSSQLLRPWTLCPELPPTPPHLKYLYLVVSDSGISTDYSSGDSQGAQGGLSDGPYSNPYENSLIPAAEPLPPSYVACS
Description: as §1

293T/CD131 cells = target: T5, 293T/CD131 cells (Homo sapiens, UniProt P32927); assay: Staining of 293T/CD131 cells with purified antibodies; type: binding
T5 construct: expressed in transfected cells; host or cells: 293T cells, lentiviral transduction
T5 sequence (P32927 17-897): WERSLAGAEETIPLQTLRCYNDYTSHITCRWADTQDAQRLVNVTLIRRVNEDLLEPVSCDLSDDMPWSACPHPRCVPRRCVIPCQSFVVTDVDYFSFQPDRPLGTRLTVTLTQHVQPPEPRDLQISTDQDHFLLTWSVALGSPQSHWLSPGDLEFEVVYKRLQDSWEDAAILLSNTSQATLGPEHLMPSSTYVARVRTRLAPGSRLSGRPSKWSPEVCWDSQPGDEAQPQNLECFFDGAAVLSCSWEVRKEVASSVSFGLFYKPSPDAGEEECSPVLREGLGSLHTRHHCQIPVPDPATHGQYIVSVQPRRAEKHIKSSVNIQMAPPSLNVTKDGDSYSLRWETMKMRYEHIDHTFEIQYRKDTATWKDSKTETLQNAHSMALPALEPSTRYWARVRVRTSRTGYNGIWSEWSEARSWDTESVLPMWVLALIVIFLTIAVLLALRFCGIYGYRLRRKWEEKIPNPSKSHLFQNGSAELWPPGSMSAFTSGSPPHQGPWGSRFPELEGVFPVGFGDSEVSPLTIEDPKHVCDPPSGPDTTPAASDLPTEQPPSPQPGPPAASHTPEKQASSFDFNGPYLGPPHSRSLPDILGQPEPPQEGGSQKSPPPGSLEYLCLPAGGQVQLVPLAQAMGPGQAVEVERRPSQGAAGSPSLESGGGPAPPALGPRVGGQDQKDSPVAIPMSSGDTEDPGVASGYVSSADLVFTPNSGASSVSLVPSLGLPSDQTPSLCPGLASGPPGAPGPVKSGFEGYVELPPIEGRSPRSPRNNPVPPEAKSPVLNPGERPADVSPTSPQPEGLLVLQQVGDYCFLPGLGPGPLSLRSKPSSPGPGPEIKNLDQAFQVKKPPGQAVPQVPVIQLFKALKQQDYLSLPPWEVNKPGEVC
Description: as §1

[2] = target: T6, EPO/EPOR interaction (EPOR-CD131-Fc and EPO) (Homo sapiens, UniProt P19235+P32927); assay: Octet blocking of the EPO/EPOR interaction by hybridoma supernatants; type: binding; settings: EPO 10 nM
T6 construct: Chimeric Fc fusion proteins of the extracellular domains of human EPOR and human CD131; purchased Sino Biological CT010-H02H
T6 sequence (P19235 25-250 limits assumed): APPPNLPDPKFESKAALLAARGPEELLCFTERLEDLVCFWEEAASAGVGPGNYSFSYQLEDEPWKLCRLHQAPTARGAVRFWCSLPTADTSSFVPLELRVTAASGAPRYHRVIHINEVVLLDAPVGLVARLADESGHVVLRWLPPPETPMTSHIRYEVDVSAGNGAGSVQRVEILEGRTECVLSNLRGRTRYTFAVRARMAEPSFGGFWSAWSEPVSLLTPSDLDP
T6 sequence (P32927 17-443 limits assumed): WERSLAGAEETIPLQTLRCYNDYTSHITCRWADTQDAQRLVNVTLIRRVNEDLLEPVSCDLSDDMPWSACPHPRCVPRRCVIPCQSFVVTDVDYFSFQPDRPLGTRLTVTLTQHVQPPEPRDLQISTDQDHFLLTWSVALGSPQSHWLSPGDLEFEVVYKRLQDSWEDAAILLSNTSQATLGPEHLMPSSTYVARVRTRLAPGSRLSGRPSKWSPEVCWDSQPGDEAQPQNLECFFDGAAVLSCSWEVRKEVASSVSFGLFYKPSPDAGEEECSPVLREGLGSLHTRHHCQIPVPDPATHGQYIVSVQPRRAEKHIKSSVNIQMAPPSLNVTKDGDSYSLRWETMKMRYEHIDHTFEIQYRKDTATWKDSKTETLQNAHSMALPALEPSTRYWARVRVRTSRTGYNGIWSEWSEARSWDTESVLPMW

For `O=C(O)CNC(=O)C1=C(O)CCN(Cc2ccc(Oc3ccc(Cl)cc3)nc2)C1=O` [TP0463518], the IC50 (PHD1-3) is given as 5.3 to 63 nM.

In the case of `O=c1cc(-c2ccc(O)cc2)oc2c([C@@H]3O[C@H](CO)[C@@H](O)[C@H](O)[C@H]3O)c(O)cc(O)c12` [Vitexin], the IC50 (Glucosidase) is given as 48 nM.

With “CEPO: chemically modified EPO analog in which the Lys residues are carbamylated [reference compound]” the FoxP3 expressing cells [1] was 69.3%.

For QEQLERALNSS, the “activity for the hetero-EPOR” value (hetero-EPOR) is listed as “activates the hetero-EPOR”.

B1: EPORab - M41: hybridoma antibody clone, VH/VK in Table 10 (antibody, V domains shown)
VH: QVQLVESGGGLVQPGRSLRLSCAASGFTFDDYAIHWVRQAPGKGLEWVSGISYNSENIGYADSVKGRFTISRDNAKNSLYLQMNSLRSEDTALYYCAKDMFLTWFSSFDYWGQGTLVTVSS
VL: ETKLTQSPGTLSLSPGERTTLSCRASQSISNNYLAWYQQKPGQAPRLLIYRASTRATGIPDRFSGSGSGTDFTLTIRRLEPEDFAVYYCQRYGRSPLTFGGGTKVEIK
In the case of B1, the “binding to 293T/EPOR cells” value (293T/EPOR cells; 0.74 μg/ml purified antibody) is reported as “lost most of the binding”, the “binding to 293T/EPOR cells” value (293T/EPOR cells; 20 μg/ml purified antibody) is reported as “robust binding activities” and the “blocking of Stat5 phosphorylation” value (EPOR (UT-7 cells)) is reported as “partial blocking”. The “peak MFI” value (293T/EPOR/CD131 cells) was “around 1500”, the “staining of 293T/CD131 cells” value (293T/CD131 cells) was “did not stain” and the “blocking of the EPO/EPOR interaction” value [2] was “partial blocking”.
